From patent publication US8008256B2, “Combination therapy for treatment of cancer” (priority 2006, dated 2011) come the findings set out here.

One data set deals with PC-3 tumors. Kind of data set: PC-3 xenograft tumor growth. As to conditions: for mean tumor volume after four weeks: docetaxel i.p. 6 then 4 mg/kg twice a week, CN 60 μg/day osmotic mini-pump, control 378±49; for suppression of growth of PC-3 tumors: four weeks treatment. Format: in vivo, athymic male nude mice (Balb/c/nu/nu mice). How it is done:
100 μl of PC-3 cell suspension (1×10^6 cells) (ATCC.org, Manassas, Va.) was mixed with an equal volume, 100 μl of Matrigel basement membrane matrix (BD Biosciences, Bedford, Mass.) and injected subcutaneously into the flank region of athymic male nude mice (Balb/c/nu/nu mice) (Charles River Laboratory, Wilmington, Mass.). Four weeks after inoculation, 32 mice with PC-3 tumors were randomized into four groups with 8 mice in each group. The control group was treated with PBS and released from Alzet osmotic mini-pumps for four weeks. The second group was treated with docetaxel injections intraperitoneally at a dose of 6 mg/kg twice a week for two weeks and then switched to 4 mg/kg twice a week for two weeks. The third group was treated with contortrostatin (CN) at a dose of 60 μg/day which was continually released from subcutaneously implanted Alzet osmotic mini-pumps for four weeks. The fourth group was treated with a combination of docetaxel and CN at doses indicated in groups 2 and 3 for four weeks. Tumor volume was measured one a week and are calculated according to the formula: length×width^2×0.52.

In data set [1] the target is T1, GPIIb/IIIa (integrin αIIbβ3) (Homo sapiens, UniProt P05106+P08514).
T1 construct: endogenous in cells
Kind of data set: platelet aggregation inhibition assay (ADP induced, platelet-rich plasma). The class given is cell-based. How it is done:
The recombinant CN products were evaluated for biological activity by a platelet aggregation inhibition assay. According to this assay, CN binding to GPIIb/IIIa (integrin αIIbβ3) in an RGD dependent manner inhibits ADP induced platelet aggregation (Trikha, Rote, et al. 1994). In this assay, potential inhibitors are added to fresh platelet-rich plasma, and after minute, ADP is added to a final concentration of 1 μM to induce aggregation. If inhibitor is present, functional aggregation will not occur. The IC50 is defined as the concentration at which 50% of the activity is inhibited, and is used as a measure of the potency of an inhibitor.

The test system of data set [2] is MDA-MB-435 breast carcinoma cells. Kind of data set: inhibition of MDA-MB-435 cell adhesion to immobilized fibronectin (Fn). Format: cell-based, human. To be noted: pretreatment 30 min, 0-1000 nM; adhesion 1 hr at 25° C.; MTS. The method, then: (§1) Pretreated cells were allowed to adhere for 1 hr at 25° C., and after non-adherent cells were washed away, the number of adherent cells for each condition was estimated using the MTS cell viability assay. In the cell invasion assay, an invasion chamber consisting of cell culture inserts that fit into 24-well tissue culture plate has been utilized. The inserts contain an 8 μm-pore size polycarbonate membrane, over which a thin layer of ECMatrix™ was applied. The ECMatrix™ serves as an in vitro reconstituted basement membrane and is a solid gel of ECM proteins prepared from the Engelbreth Holm-Swarm (EHS) mouse tumor. The ECM layer occludes the membranes pores, blocking non-invasive cells to migrate through. The cells were incubated in the presence of various concentrations (10, 100, 1000 nM) of either native CN or Vicrostatin for 30 min at 25° C. and then allowed to migrate in the Boyden chamber for 8 hrs. At the 8 hr time point the cells that invaded through the pores into the lower chamber were measured. The numbers of invaded cells for each condition were approximated by quantitating the retrieved labeled DNA using a fluorescent plate reader. The results were calculated in % invasion, where the untreated control was considered as 100% invasion.

Data set [3] shares this test system. Kind of data set: inhibition of MDA-MB-435 cell adhesion to immobilized vitronectin (Vn). Format: cell-based, human. As to conditions: pretreatment 30 min, 0-1000 nM; adhesion 1 hr at 25° C.; MTS. The method, then: as §1
The subject of a further data set is MDA-MB-435 cells. Briefly: MDA-MB-435 cell invasion through Matrigel/ECMatrix in modified Boyden chamber. Format: cell-based, human. To be noted: 10, 100, 1000 nM; 8 hrs in Boyden chamber. How it is done:
as §1

Data set [4] in a line: liposome encapsulation efficiency (BCA protein assay). Format: physicochemical. How it is done: Endotoxin-free VN containing liposomes (referred to as LVN) and endotoxin-free native CN containing liposomes (referred to as LCN) were prepared utilizing a probe sonication previously described (Fujii, Chang et al. 1997). Briefly, the lipids (disteroylphosphatidylcholine, cholesterol and polyethylene glycol derivatized lipid) were dissolved in a chloroform/methanol solution. Thin lipid films were created by pipetting aliquots of the lipid solution into round bottom glass tubes followed by solvent evaporation at 65° C. under a stream of nitrogen gas. The films were placed under vacuum for at least 24 hours to remove residual organic solvent. Liposomes formed following hydration of the lipid films with native CN or VN dissolved in 10 mM sodium phosphate, 9% sucrose, pH 7.2. The mixture was incubated at 65° C. for 5-10 minutes. Hydration was followed by probe sonication until the suspension was translucent. […]
The concentration of liposome entrapped CN/VN was determined by disruption of the liposomes with chloroform/methanol/water (10:40:50) followed by centrifugation at 14,000×g. The supernatant was analyzed for CN/VN concentration using BCA protein assay (Smith et al., Anal. Biochem. 150(1): 76-85 (1985)). The encapsulation efficiency was assessed by BCA protein determination following disruption of the LrCN with a solution of H2O methanol: chloroform.

For the molecule `CC(=O)O[C@@]12CO[C@@H]1C[C@H](O)[C@@]1(C)C(=O)[C@H](O)C3=C(C)[C@@H](OC(=O)[C@H](O)[C@@H](NC(=O)OC(C)(C)C)c4ccccc4)C[C@@](O)([C@@H](OC(=O)c4ccccc4)[C@H]21)C3(C)C` [docetaxel, reference compound], in the data set with PC-3 tumors, the “mean tumor volume after four weeks” value turned out to be 259±38 mm^3 and the “suppression of growth of PC-3 tumors” value is reported as “significantly suppressed”.

On to “rCN: recombinant CN disintegrin domain without the HKGPAT sequence”, for which the “inhibition of platelet aggregation” value in data set [1] (even at low μM concentrations) is “did not inhibit platelet aggregation”. Also, in data set [2], the “inhibition of adhesion of MDA-MB-435 cells to immobilized fibronectin (Fn)” value is “inactive in the nanomolar range”. The “inhibition of adhesion of MDA-MB-435 cells to immobilized vitronectin (Vn)” value in data set [3] is “inactive in the nanomolar range”. In the data set on MDA-MB-435 cells, the “inhibition of MDA-MB-435 cell invasion” value was “inactive in the nanomolar range”.

B1: native CN (protein)
chain: DAPANPCCDAATCKLTTGSQCADGLCCDQCKFMKEGTVCRRARGDDLDDYCNGISAGCPRNPFH
For B1, in data set [1] (ADP 1 μM induced aggregation), the “IC50 in the platelet inhibition assay” value is recorded as “almost identical”. Besides, in data set [2], the “inhibition of adhesion of MDA-MB-435 cells to immobilized fibronectin (Fn)” value is listed as “inhibited adhesion”. The “inhibition of adhesion of MDA-MB-435 cells to immobilized vitronectin (Vn)” value in data set [3] is on record as “inhibited adhesion”. Moreover, in the data set with PC-3 tumors, the “mean tumor volume after four weeks” value was determined as 195±40 mm^3 and the “suppression of growth of PC-3 tumors” value is given as “significantly suppressed”. In data set [4], the “protein in the encapsulation solution entrapped within the liposomes” value is on record as 80%.
